Measurements taken from article PMC6774396 (Frontiers in Immunology, 2019).

Experiments:
[1] = test system: THP-1 cells over TNF-α-activated HUVEC; test: L-selectin-GFP/RFP clustering in mid-TEM under flow, FLIM/FRET; type: cell-based, human
Method: (A) Line scanning confocal microscopic image of THP-1 cells, stably expressing GFP, captured in mid-TEM—following 15 min of perfusion over TNF-α-activated HUVEC monolayers. […] “Top” and “Base,” respectively, represent the apical and basolateral aspect of the endothelium (x63 objective lens, Leica SP5). Scale bar = 24 μm. (B,C) THP-1 cells expressing WT, SSAA, or SSDD L-selectin-GFP/RFP were perfused over TNF-α-activated HUVEC and fixed after 15 min of perfusion. […] Lifetime images taken of at least 45 cells and analyzed over 3 independent experiments was quantified and expressed as FRET efficiency. Images representative of three independent experiments, where at least 45 cells of each group was analyzed at two optical sections, Top and Base, as indicated in the cartoon of a yellow monocyte captured in mid-TEM crossing a red endothelium. Individual GFP channel and lifetime images are provided for each cell line. The lifetime of fluorescence is expressed in a pseudocolour scale from red (low lifetime with a very high probability of interaction) to blue (high lifetime with a very low probability of interaction). Statistics: unpaired student t-test ***p ≤ 0.001.
Cells expressing WT L-selectin-GFP/RFP were treated for 30 min with 10 μM TAPI-0 and subsequently perfused over TNF-activated HUVEC monolayers for 15 min prior to fixation and analysis for FRET by FLIM (see Materials and Methods for more detail). […] (B) Images representative of three independent experiments, where at least 45 cells of each group were analyzed at two optical sections–non-transmigrated uropods (Top) and transmigrated pseudopods (Base). GFP fluorescence channel and lifetime images are provided for each cell line. The lifetime of fluorescence is expressed in a pseudocolour scale from red (low lifetime with a very high probability of interaction) to blue (high lifetime with a very low probability of interaction). […]
FLIM measurement of FRET was performed with a multiphoton microscope system as described previously ([8], [23]). […] Fluorescence lifetime imaging capability was provided by time-correlated, single-photon counting electronics (SPC 700; Becker & Hickl). […] Data were analyzed as previously described ([65]). The FRET efficiency is related to the molecular separation of donor and acceptor and the fluorescence lifetime of the interacting fraction by: […]
where ηFRET is the FRET efficiency, R0 is the Förster radius, r is the molecular separation, τFRET is the lifetime of the interacting fraction and τd is the lifetime of the donor in the absence of an acceptor. The donor- only control is used as the reference against which all of other lifetimes are calculated in each experiment. τFRET and τd can also be taken to be the lifetime of the interacting fraction and non-interacting fraction, respectively. […]

[2] = biological target: moesin FERM domain, 1-297 (UniProt P26038); test: SPR competition assay
[3] = test system: THP-1 cells over TNF-α-activated HUVEC; test: Pseudopod protrusion scoring in TEM under flow; type: cell-based, human
Method: (A) The number of protrusions formed over this period was scored as: zero, one, two, or >2. (B) The percentages of cells bearing these protrusions were scored at specific time points: 6 min (blue bars), 15 min (green bars), or 25 min (red bars). Supplementary Videos 2, 3, 4 provide examples of cells producing a range of protrusions as TEM proceeds. Data represent SEM of 3 fields of view per flow experiment, conducted on three separate occasions, and at least 180 cells analyzed per group. Values of the vertical lines indicate the differences in protrusion number (specifically “zero” and “two”) corresponding to each of the cell lines, for which statistical significance is shown in Table 1.
All flow experiments were performed using a 35 mm diameter Glycotech parallel plate flow chamber. Perfusion experiments were performed at 1.5 dyn/cm^2 using a Harvard Apparatus 2000 PHD syringe pump. Perfusion media consisted of: RPMI supplemented with L-glutamine, 10% FCS, 1% penicillin/streptomycin, 50 μM β-mercaptoethanol, and 25 mM HEPES. Human Umbilical Vein Endothelial Cells (HUVEC–Lonza) were seeded onto 35 mm diameter glass coverslips (no. 1 thickness; VWR) that were pre-coated with 10 μg/mL fibronectin (37°C for at least 1 h). Before each perfusion assay, HUVEC were stimulated overnight (16 h) with 10 ng/mL carrier-free recombinant human TNF-α (R&D Systems). Each perfusion assay was performed by injecting a bolus of cells for 6 min, followed by just perfusion media (without cells) for the […]. THP-1 cells were perfused at a density of 0.5 ×10^6 cells per mL. THP-1 cells treated with 10 μM TAPI-0 required a preincubation time of 10 min at 37°C before perfusion over TNF-α-activated HUVEC. Note that 10 μM TAPI-0 was also supplemented in the perfusate. Stills were acquired once every 10 seconds using 10 × objective lens.

Molecule: CC(C)C[C@H](CC(=O)NO)C(=O)N[C@@H](Cc1ccc2ccccc2c1)C(=O)N[C@@H](C)C(N)=O [TAPI-0, reference compound]
- subcellular distribution of WT L-selectin clustering during TEM with sheddase inhibitor ([1]; 10 μM TAPI-0 pretreatment and in perfusate, WT L-selectin-GFP/RFP, 15 min perfusion): a large majority of L-selectin clustering had relocated from transmigrated pseudopods to non-transmigrated uropods

Molecule: mouse L-selectin cytoplasmic tail (from UniProt P18337) mouse pS364 tail peptide
- binding against the reference ([2]; reference: mouse non-phosphorylated tail peptide (NPP), sites S364): lost

Molecule: L-selectin cytoplasmic tail, 356-372 (from UniProt P14151) pS364 tail peptide
- binding against the reference ([2]; reference: non-phosphorylated tail peptide (NPP), sites S364): lost

Molecule: L-selectin cytoplasmic tail, 356-372 (from UniProt P14151) pS367 tail peptide
- binding against the reference ([2]; reference: non-phosphorylated tail peptide (NPP), sites S367): same

B1: SSDD: L-selectin with phospho-mimicking aspartates at Ser^364 and Ser^367 (protein)
chain: WTYHYSEKPMNWQRARRFCRDNYTDLVAIQNKAEIEYLEKTLPFSRSYYWIGIRKIGGIWTWVGTNKSLTEEAENWGDGEPNNKKNKEDCVEIYIKRNKDAGKWNDDACHKLKAALCYTASCQPWSCSGHGECVEIINNYTCNCDVGYYGPQCQFVIQCEPLEAPELGTMDCTHPLGNFSFSSQCAFSCSEGTNLTGIEETTCGPFGNWSSPEPTCQVIQCEPLSAPDLGIMNCSHPLASFSFTSACTFICSEGTELIGKKKTICESSGIWSNPSPICQKLDKSFSMIKEGDYNPLFIPVAVMVTAFSGLAFIIWLARRLKKGKKDKRDMNDPY
modifications: left off: eGFP (donor copy) or mCherry (acceptor copy, called RFP), C-terminal, kept
- subcellular distribution of L-selectin clustering during TEM (FLIM/FRET) ([1]; 15 min perfusion at 1.5 dyn/cm^2, fixed in mid-TEM, Top = non-transmigrated uropods, Base = transmigrated pseudopods, at least 45 cells, 3 experiments, no TAPI-0): lacked any signs of clustering during TEM

B2: S364A: L-selectin with Ser^364 mutated to alanine, GFP-tagged, expressed in THP-1 cells (protein, UniProt P14151 39-372, looked up, variant S364A)
L-selectin: WTYHYSEKPMNWQRARRFCRDNYTDLVAIQNKAEIEYLEKTLPFSRSYYWIGIRKIGGIWTWVGTNKSLTEEAENWGDGEPNNKKNKEDCVEIYIKRNKDAGKWNDDACHKLKAALCYTASCQPWSCSGHGECVEIINNYTCNCDVGYYGPQCQFVIQCEPLEAPELGTMDCTHPLGNFSFSSQCAFSCSEGTNLTGIEETTCGPFGNWSSPEPTCQVIQCEPLSAPDLGIMNCSHPLASFSFTSACTFICSEGTELIGKKKTICESSGIWSNPSPICQKLDKSFSMIKEGDYNPLFIPVAVMVTAFSGLAFIIWLARRLKKGKKAKRSMNDPY
modifications: C-terminal GFP tag
- protrusive activity profile in TEM (in words) ([3]; 6, 15 and 25 min of flow over TNF-α-activated HUVEC): produced a profile of protrusive activity that was similar to cells expressing WT L-selectin
- cells with 2 protrusions ([3]; 15 min time point, mean of 3 fields of view per flow experiment, three occasions, at least 180 cells per group, significance ** S367A p ≤ 0.01 (Tukey), % printed): 32.9%
- cells with 0 protrusions ([3]; 15 min time point, mean of 3 fields of view per flow experiment, three occasions, at least 180 cells per group, significance *** S367A p ≤ 0.001, ** SSAA p ≤ 0.01 (Tukey), % printed): 11.3%
